Data: article PMC12574954 (2025)

B1: recombinant Fab 8G5F11 (Fab, V domains shown)
VH: DVQLQESGPDLVKPSQSLSLTCTVTGYSITSGYSWHWNRQFPGNKLEWMGYIHYSGLTNYNPSLKSRISITRHTSKNQFFLQLNSVTTEDTATYYCVRGGYDGRDYYAMDFWGQGTSVTVSS
VL: DIVMTQSHKFMSTSVGDRVSITCKASQDVDNDVAWYQQKPGQSPKLLIYWASTRHTGVPDRFTGSGSGTDFTLTISDVQSEDLSDYFCQQYSSYPFTFGGGTRLEIK
B2: monoclonal antibody 8G5F11 (antibody, V domains shown)
VH: DVQLQESGPDLVKPSQSLSLTCTVTGYSITSGYSWHWNRQFPGNKLEWMGYIHYSGLTNYNPSLKSRISITRHTSKNQFFLQLNSVTTEDTATYYCVRGGYDGRDYYAMDFWGQGTSVTVSS
VL: DIVMTQSHKFMSTSVGDRVSITCKASQDVDNDVAWYQQKPGQSPKLLIYWASTRHTGVPDRFTGSGSGTDFTLTISDVQSEDLSDYFCQQYSSYPFTFGGGTRLEIK

Target: T1, thermolysin-generated VSV Gect (aa residues 1-422) (Vesicular stomatitis virus, UniProt P0C2X0 17-438)
T1 chain: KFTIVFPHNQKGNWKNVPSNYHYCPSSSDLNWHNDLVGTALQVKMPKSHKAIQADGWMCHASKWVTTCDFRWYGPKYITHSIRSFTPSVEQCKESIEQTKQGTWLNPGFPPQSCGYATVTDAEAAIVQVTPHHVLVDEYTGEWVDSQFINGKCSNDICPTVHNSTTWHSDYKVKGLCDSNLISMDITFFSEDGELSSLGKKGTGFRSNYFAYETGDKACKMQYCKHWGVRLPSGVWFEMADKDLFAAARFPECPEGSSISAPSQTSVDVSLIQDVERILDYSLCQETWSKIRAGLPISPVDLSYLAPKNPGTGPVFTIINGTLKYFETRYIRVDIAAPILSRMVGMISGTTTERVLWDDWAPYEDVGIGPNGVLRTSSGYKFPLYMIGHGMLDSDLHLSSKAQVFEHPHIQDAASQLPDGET
Experiment: BLI

Row | Binder | Kd [nM]
1 | B1 | 0.72
2 | B2 | 1.01
